According to article PMC3319252:

Key:
[1] = molecular target: transmembrane (TM) domain of the human nicotinic acetylcholine receptor α4 subunit (human); experiment: SEC-MALS
[2] = molecular target: transmembrane (TM) domain of the human nicotinic acetylcholine receptor β2 subunit (human); experiment: SEC-MALS

stoichiometry N [1] | stoichiometry N [2] | Substance
5 | – | transmembrane (TM) domain of the human nicotinic acetylcholine receptor α4 subunit (domain or fragment)
– | 5 | transmembrane (TM) domain of the human nicotinic acetylcholine receptor β2 subunit (domain or fragment)
